Here are results for 27 molecules from patent US20240123070A1, “EPITOPE PEPTIDE OF RAS G13D MUTANT AND T CELL RECEPTOR RECOGNIZING RAS G13D MUTANT” (SHANGHAI GENBASE BIOTECHNOLOGY CO., LTD., priority 2021, published 2024).

T1: KRAS G13D (G13D-RT6) peptide on HLA-DQA1*05:01 / HLA-DQB1*03:01 (human)
T1 chain: YKLVVVGAGDVGKSAL

B1: B8.2.4 TCR mutant β95Q-A (protein)
chain 1: AQKITQTQPGMFVQEKEAVTLDCTYDTSDPSYGLFWYKQPSSGEMIFLIYQGSYDQQNATEGRYSLNFQKARKSANLVISASQLGDSAMYFCAMRERTGTASKLTFGTGTRLQVTL
chain 2: DVKVTQSSRYLVKRTGEKVFLECVQDMDHENMFWYRQDPGLGLRLIYFSYDVKMKEKGDIPEGYSVSREKKERFSLILESASTNQTSMYLCASSATVPPQHFGDGTRLSIL
B2: B8.2.4 TCR mutant β98P-H (protein)
chain 1: B1 chain 1
chain 2: B1 chain 2 with A95Q, P98H
B3: B8.2.4 TCR mutant β95Q-Y (protein)
chain 1: B1 chain 1
chain 2: B1 chain 2 with A95Y
B4: B8.2.4 TCR mutant β95Q-N (protein)
chain 1: B1 chain 1
chain 2: B1 chain 2 with A95N
B5: B8.2.4 TCR mutant β98P-M (protein)
chain 1: B1 chain 1
chain 2: B1 chain 2 with A95Q, P98M
B6: B8.2.4 TCR mutant β95Q-C (protein)
chain 1: B1 chain 1
chain 2: B1 chain 2 with A95C
B7: B8.2.4 TCR mutant β98P-D (protein)
chain 1: B1 chain 1
chain 2: B1 chain 2 with A95Q, P98D
B8: B8.2.4 TCR mutant β97V-S (protein)
chain 1: B1 chain 1
chain 2: B1 chain 2 with A95Q, V97S
B9: B8.2.4 TCR mutant β95Q-E (protein)
chain 1: B1 chain 1
chain 2: B1 chain 2 with A95E
B10: B8.2.4 TCR mutant β95Q-M (protein)
chain 1: B1 chain 1
chain 2: B1 chain 2 with A95M
B11: B8.2.4 TCR mutant β98P-G (protein)
chain 1: B1 chain 1
chain 2: B1 chain 2 with A95Q, P98G
B12: B8.2.4 TCR mutant β98P-C (protein)
chain 1: B1 chain 1
chain 2: B1 chain 2 with A95Q, P98C
B13: B8.2.4 TCR mutant β98P-L (protein)
chain 1: B1 chain 1
chain 2: B1 chain 2 with A95Q, P98L
B14: B8.2.4 TCR mutant β98P-R (protein)
chain 1: B1 chain 1
chain 2: B1 chain 2 with A95Q, P98R
B15: B8.2.4 TCR mutant β97V-I (protein)
chain 1: B1 chain 1
chain 2: B1 chain 2 with A95Q, V97I
B16: B8.2.4 TCR mutant β95Q-W (protein)
chain 1: B1 chain 1
chain 2: B1 chain 2 with A95W
B17: B8.2.4 TCR mutant β98P-V (protein)
chain 1: B1 chain 1
chain 2: B1 chain 2 with A95Q, P98V
B18: B8.2.4 TCR mutant β98P-F (protein)
chain 1: B1 chain 1
chain 2: B1 chain 2 with A95Q, P98F
B19: B8.2.4 TCR mutant β95Q-T (protein)
chain 1: B1 chain 1
chain 2: B1 chain 2 with A95T
B20: B8.2.4 TCR mutant β98P-W (protein)
chain 1: B1 chain 1
chain 2: B1 chain 2 with A95Q, P98W
B21: B8.2.4 TCR mutant β98P-S (protein)
chain 1: B1 chain 1
chain 2: B1 chain 2 with A95Q, P98S
B22: B8.2.4 TCR mutant β97V-T (protein)
chain 1: B1 chain 1
chain 2: B1 chain 2 with A95Q, V97T
B23: B8.2.4 TCR mutant β95Q-G (protein)
chain 1: B1 chain 1
chain 2: B1 chain 2 with A95G
B24: B8.2.4 TCR mutant β95Q-V (protein)
chain 1: B1 chain 1
chain 2: B1 chain 2 with A95V
B25: B8.2.4 TCR mutant β95Q-H (protein)
chain 1: B1 chain 1
chain 2: B1 chain 2 with A95H
B26: B8.2.4 TCR mutant β95Q-I (protein)
chain 1: B1 chain 1
chain 2: B1 chain 2 with A95I
B27: B8.2.4 TCR mutant β95Q-D (protein)
chain 1: B1 chain 1
chain 2: B1 chain 2 with A95D

Residue numbers refer to the chain shown, from its start.

The target in the test is T1, KRAS G13D (G13D-RT6) peptide on …. Nature of the test: NFAT-luciferase; Jurkat-NFAT-Luc with the TCR and Lovo-DPA0301:DPB0501 cells loaded with G13D-RT6; against wild-type B8.2.4 TCR; full-length, on cells. The settings on record: chains Valpha:Vbeta.
Take B1: the TCR Mut RLU/WT RLU is 0.86.
Next, B2: 0.6; B3: 0.92.
In turn, B4 yielded a TCR Mut RLU/WT RLU of 0.6.
Regarding B5, the TCR Mut RLU/WT RLU was determined as 0.83.
Next, B6: 1.14; B7: 0.8.
For B8 the value was 0.78.
For the molecule B9, the TCR Mut RLU/WT RLU was found to be 0.81.
For B10 the value was 0.99.
Take B11: the TCR Mut RLU/WT RLU was determined as 0.73.
As to B12, the TCR Mut RLU/WT RLU was found to be 1.11.
B13 displayed a TCR Mut RLU/WT RLU of 0.67.
In the case of B14, the TCR Mut RLU/WT RLU came out at 0.73.
As for B15, the TCR Mut RLU/WT RLU was 0.61.
On to B16, for which the TCR Mut RLU/WT RLU was 0.88.
For B17 the value was 0.63.
Take B18: the TCR Mut RLU/WT RLU amounted to 0.96.
The molecule B19 returned a TCR Mut RLU/WT RLU of 0.59.
For B20, the TCR Mut RLU/WT RLU was 0.81.
Take B21: the TCR Mut RLU/WT RLU was determined as 0.94.
For B22, the TCR Mut RLU/WT RLU stood at 0.98.
Next, B23: 1.03.
Molecule B24 displayed a TCR Mut RLU/WT RLU of 0.76.
The molecule B25 had a TCR Mut RLU/WT RLU of 0.68.
Consider B26, for which the TCR Mut RLU/WT RLU worked out at 0.74.
Turning to B27, the TCR Mut RLU/WT RLU stood at 0.6.
